Reference: patent US20240059769A1 (BIOLOJIC DESIGN, published 2024)

T1: IL-4 (Homo sapiens (Human), UniProt P05112 25-153)
T1 sequence: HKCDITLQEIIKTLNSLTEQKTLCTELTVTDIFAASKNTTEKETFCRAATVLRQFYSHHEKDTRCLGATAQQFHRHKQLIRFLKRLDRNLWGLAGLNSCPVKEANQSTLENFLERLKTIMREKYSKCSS


Columns and labels:
[1] = biological target: T2, hTSLP-His (human, UniProt Q969D9 29-159, limits assumed); assay: competition ELISA, TSLP-R coated, soluble TSLP-R as competitor for hTSLP
T2 construct: bought; also called hTSLP (ACROBiosystems TSP-H52Hb); not shown: His tag

[2] = biological target: T3, recombinant human IL-13 (human, UniProt P35225 35-146); assay: SPR (Biacore T200), antibody captured, hIL-13 analyte 20-0.6 nM
T3 construct: also called rh-IL-13; hIL-13
T3 sequence (P35225 35-146 limits assumed): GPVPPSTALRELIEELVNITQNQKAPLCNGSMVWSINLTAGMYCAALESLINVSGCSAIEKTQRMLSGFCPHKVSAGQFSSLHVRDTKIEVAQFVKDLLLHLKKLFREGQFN
Procedure: Recombinant cyno IL-13 (rc-IL-13) was tested at 200 nM with a 2-fold dilution (FIGS. 5C-5D).

[3] = biological target: T4, human TSLP (human, UniProt Q969D9 29-159); assay: ELISA, ligand coated, IgG 1-1000 nM
T4 construct: also called hTSLP; rhTSLP

[4] = biological target: T5, recombinant cynomolgus monkey IL-13 (cynomolgus monkey, UniProt Q0PW92 21-132); assay: ELISA, ligand coated, IgG 1-1000 nM
T5 construct: bought; also called rc-IL-13; cIL-13
T5 sequence (Q0PW92 entry or part of it): as the sequence (P35225 35-146 limits assumed) above, with G1S, R10K, M42V, S67N, H83R, L100V counted along it

[5] = biological target: T6, cynomolgus monkey (cyno) TSLP (cynomolgus monkey, UniProt A0A7N9CAT7 29-159); assay: ELISA, ligand coated, IgG 1-1000 nM
T6 construct: also called cTSLP; cynomolgus TSLP
T6 sequence (A0A7N9CAT7 entry or part of it): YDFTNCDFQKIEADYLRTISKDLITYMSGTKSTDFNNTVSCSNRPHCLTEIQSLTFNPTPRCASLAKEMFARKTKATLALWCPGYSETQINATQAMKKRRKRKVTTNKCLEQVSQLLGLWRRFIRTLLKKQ

[6] = biological target: T3, recombinant human IL-13; assay: cell-based or functional assay
[7] = biological target: T7, IL-2 (Homo sapiens (Human), UniProt P60568 21-153); assay: specificity ELISA, 250 ng ligand coated
T7 sequence (P60568 21-153 limits assumed): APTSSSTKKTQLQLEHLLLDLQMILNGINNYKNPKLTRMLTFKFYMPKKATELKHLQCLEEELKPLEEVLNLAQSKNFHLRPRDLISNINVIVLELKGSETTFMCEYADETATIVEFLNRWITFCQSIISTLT

[8] = biological target: BSA (UniProt P02769 25-607); assay: ELISA, 250 ng coated ligand per well, 100 nM IgG, anti-human Fc-HRP
BSA, sequence (P02769 25-607 limits assumed): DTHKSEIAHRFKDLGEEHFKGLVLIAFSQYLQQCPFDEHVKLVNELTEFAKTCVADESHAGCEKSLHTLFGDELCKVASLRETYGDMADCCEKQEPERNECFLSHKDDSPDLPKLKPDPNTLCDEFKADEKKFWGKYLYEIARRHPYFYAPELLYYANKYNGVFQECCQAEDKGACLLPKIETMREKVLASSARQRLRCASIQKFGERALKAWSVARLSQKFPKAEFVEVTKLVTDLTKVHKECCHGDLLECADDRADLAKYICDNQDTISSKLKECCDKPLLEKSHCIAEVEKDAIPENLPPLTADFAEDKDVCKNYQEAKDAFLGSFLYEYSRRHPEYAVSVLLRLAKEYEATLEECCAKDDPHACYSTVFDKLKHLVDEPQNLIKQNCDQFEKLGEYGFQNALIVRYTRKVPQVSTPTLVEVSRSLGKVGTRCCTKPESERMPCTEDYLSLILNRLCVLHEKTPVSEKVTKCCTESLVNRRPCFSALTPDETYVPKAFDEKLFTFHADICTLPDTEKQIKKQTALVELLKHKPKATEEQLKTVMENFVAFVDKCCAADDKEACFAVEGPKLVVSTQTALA

[9] = biological target: T2, hTSLP-His; assay: competition ELISA, TSLP-R-Fc coated, 3 nM hTSLP-His pre-mixed with IgG
Source text: Wells were then washed three times with TBS 0.05% tween (TBS-T) and blocked with TBS-T containing 2% BSA (w/v).

[10] = biological target: T4, human TSLP; assay: SPR
[11] = biological target: T2, hTSLP-His; assay: cell-based or functional assay
[12] = biological target: T3, recombinant human IL-13; assay: SPR
[13] = biological target: T7, IL-2; assay: ELISA, 250 ng coated ligand per well, 100 nM IgG, anti-human Fc-HRP
[14] = biological target: T1, IL-4; assay: as above

IC50 [1] [nM] | Kd [2] [nM] | koff [2] [s⁻¹] | kon [2] [M⁻¹ s⁻¹] | EC50 [3] [nM] | EC50 [4] [nM] | EC50 [5] [nM] | IC50, HEK-Blue IL-4/IL-13 reporter (0.4 nM rh-IL-13) [6] [nM] | binding result [7] | binding result [8] | IC50 [9] [nM] | Kd [10] [nM] | koff [10] [s⁻¹] | kon [10] [M⁻¹ s⁻¹] | IC50, TSLP dependent pSTAT5 activation in MUTZ5 cells (14 pM TSLP) [11] [pM] | Kd [12] [nM] | koff [12] [s⁻¹] | kon [12] [M⁻¹ s⁻¹] | binding result [13] | binding result [14] | Binder
3 | – | – | – | – | – | – | – | – | – | – | – | – | – | – | – | – | – | – | – | TSLP-R-Fc tag (Fc fusion, UniProt Q9HC73 23-231, looked up, bought; also called TSLP receptor; not shown: Fc tag) QGGAAEGVQIQIIYFNLETVQVTWNASKYSRTNLTFHYRFNGDEAYDQCTNYLLQEGHTSGCLLDAEQRDDILYFSIRNGTHPVFTASRWMVYYLKPSSPKHVRFSWHQDAVTVTCSDLSYGDLLYEVQYRSPFDTEWQSKQENTCNVTIEGLDAEKCYSFWVRVKAMEDVYGPDTYPSDWSEVTCWQRGEIRDACAETPTPPKPKLSK
– | 0.903 | 0.0036 | 4.07e+06 | 12.8 | 1.5 | 148 | 25 | no binding (tested: 100 nM IgG) | no binding (tested: 100 nM) | – | – | – | – | – | – | – | – | – | – | BDG33.025 (antibody, V domains shown, standard IgG; also called BGD33.025; BDG33.0025) VH: QMQLVESGGGVVQPGRSLRLSCAASGFTFRTYGMHWVRQAPGKGLEWVADIWYDGSNKHYADSVKGRFTITRDNSKNTLNLQMNSLRAEDTAVYYCARAPQWYLVAEPFDLWGQGTMVTVSS VL: SYVLTQPPSVSVAPGQTARITCGGNLIGSKLVHWYQQKPGQAPVLVVYDDSDRPSLIPERFSGSNSGNTATLTISRVEAGDEADYYCQVWDSSSDGVVFGGGTKLTVL
– | 3.65 | 0.0157 | 4.31e+06 | 2.5 | 7.1 | 8.2 | 1.3 | – | no binding (tested: 100 nM) | 0.41 | 0.0625 | 6.84e-05 | 1.09e+06 | 13 | 3.01 | 0.00457 | 1.52e+06 | no binding (tested: 100 nM) | no binding (tested: 100 nM) | BDG33.023 (antibody, V domains shown, standard IgG; also called BGD33.023; BDG33.0023) VH: QMQLVESGGGVVQPGRSLRLSCAASGFAFRTYGMHWVRQAPGKGLEWVAVIWYDGSNTHYADSVKGRFTITRDNSKNTLNLQMNSLRAEDTAVYYCARAPQWYLSAEAFDLWGQGTMVTVSS VL: SYVLTQPPSVSVAPGQTARITCGGNLIGSKLVHWYQQKPGQAPVLVVYDDSDRPSRIPERFSGSNSGNTATLTISRVEAGDEADYYCQVWDHSSDHVVFGGGTKLTVL
